Laboratory results reported in article PMC6424611 (Journal of molecular biology, 2019).
Where two headings read alike, the source gives them in different places. Where no end group is shown, it is not given here. The star is where a group is joined. Biotin = O=C1N[C@H]2[C@H](CS[C@H]2CCCCC(=O)*)N1; TTDS = NCCCOCCOCCOCCCNC(=O)CCC(=O)*

T1: MBP-fused PDZ domain of MAST1 (human, UniProt Q9Y2H9 967-1055)
T1 sequence (looked up): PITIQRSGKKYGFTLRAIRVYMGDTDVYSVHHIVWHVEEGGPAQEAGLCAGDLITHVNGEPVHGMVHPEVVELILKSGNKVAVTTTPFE

T2: MBP-fused PDZ domain of ARHGEF12 (human, UniProt Q9NZN5 72-151)
T2 sequence (looked up): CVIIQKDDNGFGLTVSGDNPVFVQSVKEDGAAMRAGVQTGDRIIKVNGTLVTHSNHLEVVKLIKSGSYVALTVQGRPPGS

T3: MBP-fused PDZ domain of SYNJ2BP (human, UniProt P57105 13-100)
T3 sequence (looked up): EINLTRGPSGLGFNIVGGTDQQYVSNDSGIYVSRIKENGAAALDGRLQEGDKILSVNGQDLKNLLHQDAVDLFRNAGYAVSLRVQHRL

T4: MBP-fused PDZ domain 1 of PDZRN4 (human, UniProt Q6ZMN7 224-314)
T4 sequence (looked up): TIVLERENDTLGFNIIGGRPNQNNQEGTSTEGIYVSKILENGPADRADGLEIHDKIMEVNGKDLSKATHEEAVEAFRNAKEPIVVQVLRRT

T5: MBP-fused PDZ domain 3 of PDZD7 (human, UniProt Q9H5P4 862-934)
T5 sequence (looked up): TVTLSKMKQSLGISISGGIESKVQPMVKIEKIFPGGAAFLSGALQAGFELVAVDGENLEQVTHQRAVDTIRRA

T6: MBP-fused PDZ domain 1 of NHERF3 (human, UniProt Q5T2W1 9-90)
T6 sequence (looked up): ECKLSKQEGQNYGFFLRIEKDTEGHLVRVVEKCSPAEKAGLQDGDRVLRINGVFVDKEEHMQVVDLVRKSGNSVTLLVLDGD

T7: MBP-fused PDZ domain of SNTA1 (human, UniProt Q13424 87-170)
T7 sequence (looked up): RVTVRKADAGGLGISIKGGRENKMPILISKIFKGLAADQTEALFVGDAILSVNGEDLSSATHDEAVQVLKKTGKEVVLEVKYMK

T8: MBP-fused PDZ domain 1 of PARD3B (human, UniProt Q8TEW8 201-289)
T8 sequence (looked up): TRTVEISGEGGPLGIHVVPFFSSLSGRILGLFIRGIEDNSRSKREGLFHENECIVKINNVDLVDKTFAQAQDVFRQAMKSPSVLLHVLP

T9: MBP-fused PDZ domain of SNTG2 (human, UniProt Q9NY99 73-156)
T9 sequence (looked up): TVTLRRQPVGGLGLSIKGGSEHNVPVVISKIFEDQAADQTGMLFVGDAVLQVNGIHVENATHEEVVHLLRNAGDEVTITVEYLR

T10: MBP-fused PDZ domain 1 of PDZRN3 (human, UniProt Q9UPQ7 249-339)
T10 sequence (looked up): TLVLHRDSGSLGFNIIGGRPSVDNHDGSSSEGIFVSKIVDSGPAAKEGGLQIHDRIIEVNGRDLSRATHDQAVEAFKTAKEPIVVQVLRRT

T11: MBP-fused PDZ domain of MAST2 (human, UniProt Q6P0Q8 1104-1192)
T11 sequence (looked up): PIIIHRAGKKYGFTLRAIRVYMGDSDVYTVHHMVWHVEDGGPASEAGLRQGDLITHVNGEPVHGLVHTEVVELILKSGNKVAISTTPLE

T12: MBP-fused PDZ domain of SNTB1 (human, UniProt Q13884 112-195)
T12 sequence (looked up): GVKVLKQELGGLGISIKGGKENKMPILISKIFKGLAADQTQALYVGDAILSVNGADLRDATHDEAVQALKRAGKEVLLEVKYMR

T13: biotinylated RSK1 725-735 peptide, unphosphorylated (human, UniProt Q15418 725-735)
T13 peptide (looked up): {Biotin-TTDS}-RRVRKLPSTTL

B1: RSK1 683-735 peptide, unphosphorylated (peptide, UniProt Q15418 683-735, looked up)
peptide: QSQLSHQDLQLVKGAMAATYSALNSSKPTPQLKPIESSILAQRRVRKLPSTTL
B2: first PDZ domain of Scribble (domain or fragment)
chain: not shown

Key:
[1] = target: T1, MBP-fused PDZ domain of MAST1; assay: fluorescence polarisation
[2] = target: T2, MBP-fused PDZ domain of ARHGEF12; assay: fluorescence polarisation
[3] = target: T3, MBP-fused PDZ domain of SYNJ2BP; assay: fluorescence polarisation
[4] = target: T4, MBP-fused PDZ domain 1 of PDZRN4; assay: fluorescence polarisation
[5] = target: T14, MBP-fused PDZ domain 2 of GRID2IP (human, UniProt A4D2P6 279-356); assay: fluorescence polarisation
T14 sequence (A4D2P6 279-356): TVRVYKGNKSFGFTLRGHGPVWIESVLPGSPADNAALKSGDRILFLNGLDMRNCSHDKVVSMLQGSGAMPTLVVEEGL

[6] = target: T5, MBP-fused PDZ domain 3 of PDZD7; assay: fluorescence polarisation
[7] = target: T6, MBP-fused PDZ domain 1 of NHERF3; assay: fluorescence polarisation
[8] = target: T7, MBP-fused PDZ domain of SNTA1; assay: fluorescence polarisation
[9] = target: T8, MBP-fused PDZ domain 1 of PARD3B; assay: fluorescence polarisation
[10] = target: T9, MBP-fused PDZ domain of SNTG2; assay: fluorescence polarisation
[11] = target: T10, MBP-fused PDZ domain 1 of PDZRN3; assay: fluorescence polarisation
[12] = target: T11, MBP-fused PDZ domain of MAST2; assay: fluorescence polarisation
[13] = target: T15, MBP-fused PDZ domain of HTRA1 (human, UniProt Q92743 365-467); assay: fluorescence polarisation
T15 sequence (Q92743 365-467): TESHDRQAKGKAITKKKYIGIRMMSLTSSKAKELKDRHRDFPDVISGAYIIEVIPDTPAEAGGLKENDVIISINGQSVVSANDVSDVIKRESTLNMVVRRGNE

[14] = target: T12, MBP-fused PDZ domain of SNTB1; assay: fluorescence polarisation
[15] = target: T16, MBP-fused PDZ domain 2 of MAGI2 (human, UniProt Q86UL8 426-510); assay: fluorescence polarisation
T16 sequence (Q86UL8 426-510): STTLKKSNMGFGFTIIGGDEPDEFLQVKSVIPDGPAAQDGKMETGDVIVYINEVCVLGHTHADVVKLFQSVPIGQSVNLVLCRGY

[16] = target: T17, MBP-fused PDZ domain of SNX27 (human, UniProt Q96L92 43-136); assay: fluorescence polarisation
[17] = target: T1, MBP-fused PDZ domain of MAST1; assay: fluorescence polarisation; remark: listed apart in the source
[18] = target: T14, MBP-fused PDZ domain 2 of GRID2IP; assay: fluorescence polarisation; remark: listed apart in the source
[19] = target: T5, MBP-fused PDZ domain 3 of PDZD7; assay: fluorescence polarisation; remark: listed apart in the source
[20] = target: T7, MBP-fused PDZ domain of SNTA1; assay: fluorescence polarisation; remark: listed apart in the source
[21] = target: T8, MBP-fused PDZ domain 1 of PARD3B; assay: fluorescence polarisation; remark: listed apart in the source
[22] = target: T9, MBP-fused PDZ domain of SNTG2; assay: fluorescence polarisation; remark: listed apart in the source
[23] = target: T11, MBP-fused PDZ domain of MAST2; assay: fluorescence polarisation; remark: listed apart in the source
[24] = target: T15, MBP-fused PDZ domain of HTRA1; assay: fluorescence polarisation; remark: listed apart in the source
[25] = target: T12, MBP-fused PDZ domain of SNTB1; assay: fluorescence polarisation; remark: listed apart in the source
[26] = target: T17, MBP-fused PDZ domain of SNX27; assay: fluorescence polarisation; remark: listed apart in the source
[27] = target: T2, MBP-fused PDZ domain of ARHGEF12; assay: SPR
[28] = target: T3, MBP-fused PDZ domain of SYNJ2BP; assay: SPR
[29] = target: T4, MBP-fused PDZ domain 1 of PDZRN4; assay: SPR
[30] = target: T6, MBP-fused PDZ domain 1 of NHERF3; assay: SPR
[31] = target: T7, MBP-fused PDZ domain of SNTA1; assay: SPR
[32] = target: MBP-fused second PDZ domain of MAGI1 (human, UniProt Q96QZ7 472-554); assay: SPR
Sequence of MBP-fused second PDZ domain of MAGI1 (Q96QZ7 472-554): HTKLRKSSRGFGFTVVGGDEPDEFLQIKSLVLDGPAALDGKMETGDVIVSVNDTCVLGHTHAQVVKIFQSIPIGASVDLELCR

[33] = target: T10, MBP-fused PDZ domain 1 of PDZRN3; assay: SPR
[34] = target: T11, MBP-fused PDZ domain of MAST2; assay: SPR
[35] = target: T12, MBP-fused PDZ domain of SNTB1; assay: SPR
[36] = target: T16, MBP-fused PDZ domain 2 of MAGI2; assay: SPR
[37] = target: T13, biotinylated RSK1 725-735 peptide, …; assay: holdup assay

Row | Binder | Kd [1] [µM] | Kd [2] [µM] | Kd [3] [µM] | Kd [4] [µM] | Kd [5] [µM] | Kd [6] [µM] | Kd [7] [µM] | Kd [8] [µM] | Kd [9] [µM] | Kd [10] [µM] | Kd [11] [µM] | Kd [12] [µM] | Kd [13] [µM] | Kd [14] [µM] | Kd [15] [µM] | Kd [16] [µM] | further results
1 | KLPSTTL (peptide, UniProt Q15418 729-735, looked up, also: fluorescein labeled, site not given here) [fluorescein labeled RSK1 729-735 peptide, unphosphorylated] | 26 ± 4 | 7.5 ± 0.8 | 39 ± 2 | 33 ± 5 | 5.1 ± 0.4 | 0.8 ± 0.05 | 80 ± 20 | 41 ± 11 | 27 ± 3 | 65 ± 2 | 90 ± 25 | 7.9 ± 0.6 | 30 ± 2 | 18 ± 2 | 420 ± 30 | 25 ± 6 | 
2 | KLPSTTL (peptide, UniProt Q15418 729-735, looked up, phosphorylated; fluorescein labeled) [fluorescein labeled RSK1 729-735 peptide, phosphorylated] | 34 ± 8 | 29 ± 8 | 16 ± 1 | 14 ± 2 | 47 ± 15 | 1.8 ± 0.1 | 220 ± 30 | 4.9 ± 0.4 | 6.8 ± 0.5 | 24 ± 2 | 17.5 ± 1.4 | 13 ± 2 | 11.3 ± 0.4 | 1.5 ± 0.1 | 430 ± 45 | 4.4 ± 0.4 | 
3 | B1 |  |  |  |  |  |  |  |  |  |  |  |  |  |  |  |  | Kd [17]: 5 ± 1 µM; Kd [18]: 1.7 ± 0.3 µM; Kd [19]: 4 ± 1 µM; Kd [20]: 81 ± 17 µM; Kd [21]: 45 ± 7 µM; Kd [22]: 24 ± 12 µM; Kd [23]: 19 ± 7 µM; Kd [24]: 19 ± 3 µM; Kd [25]: 37 ± 6 µM; Kd [26]: 185 ± 25 µM
4 | RSSRTRRETQL (not fully specified (N-terminus); also: biotinylated, position not given here) [biotinylated HPV16 E6 peptide] |  |  |  |  |  |  |  |  |  |  |  |  |  |  |  |  | Kd [27]: 10.9 ± 1.4 µM; Kd [28]: 33 ± 4 µM; Kd [29]: 6 ± 1.5 µM; Kd [30]: 23 ± 3 µM; Kd [31]: 101 ± 40 µM; Kd [32]: 3.4 ± 0.8 µM; Kd [33]: 8.6 ± 1.6 µM; Kd [34]: 2.5 ± 0.2 µM; Kd [35]: 27 ± 4 µM; Kd [36]: 2.9 ± 0.14 µM
5 | B2 |  |  |  |  |  |  |  |  |  |  |  |  |  |  |  |  | Kd [37]: 60 to 70 µM
